The source of these data is article PMC8752898 (The Journal of Biological Chemistry, 2021).

The subject of assay [1] is FLAG-MYC3 (full-length). Put plainly: AlphaScreen assay of interaction with FLAG-MYC3. Conditions: FLAG-MYC3 50 nM, triplicate, in words; for AlphaScreen interaction of biotin-conjugated peptide with MYC3: Biotin-MED25^CMIDM 50, 150 or 250 nM. It counts as binding, Arabidopsis. For orientation: Bead proximity is the source of the signal in Alpha formats.
Assay [2] has as its target T1, His6-SUMO-tagged MYC3 (44–238) (Arabidopsis thaliana, UniProt Q9FIP9).
T1 sequence (Q9FIP9 44-238): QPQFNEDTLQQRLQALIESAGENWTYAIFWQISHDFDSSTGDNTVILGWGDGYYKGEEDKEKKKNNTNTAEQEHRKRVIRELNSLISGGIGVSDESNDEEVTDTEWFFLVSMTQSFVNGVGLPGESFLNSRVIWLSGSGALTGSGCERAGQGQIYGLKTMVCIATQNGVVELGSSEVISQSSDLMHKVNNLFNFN
Put plainly: Fluorescence anisotropy. It counts as binding. The note with it: in words. (In fluorescence polarisation assays a small probe gives low polarisation when free and higher when bound to something large.)

In assay [3] the target is T2, His6-SUMO-tagged MYC3 (44-238) (Arabidopsis thaliana, UniProt Q9FIP9 44-238).
T2 sequence (looked up): T1 sequence (Q9FIP9 44-238)
The assay can be described thus: fluorescence polarisation.

Ends that are not written are not given here.

Take “Biotin-MED25^CMIDM: biotin-conjugated CMIDM peptide of MED25 (614–655) (YVGKADFLVFRAMSQHGFLGQLQDKKLCAVIQLPSQTLLLSV; not fully specified (N-terminus); also: biotin-conjugated)”: in assay [1], the “AlphaScreen interaction of biotin-conjugated peptide with MYC3” value was “directly interact with MYC3”. Further, the “AlphaScreen interaction of partial peptides with FLAG-MYC3” value in assay [1] (peptide 150 nM each (Fig. 4D)) was “strong interaction”. As to “JAZ10^CMID: cryptic MYC-interacting domain of JAZ10 (26–58aa) (FQKFLDRRRSFRDIQGAISKIDPEIIKSLLAST; also: 5-carboxyfluorescein-conjugated) [reference compound]”, the “binding affinity for MYC compared with Jas motif of JAZ and MED25” value in assay [2] is “stronger binding affinity for MYC than both the Jas motif of JAZ and MED25”. As to “MED25^CMIDM: CMID-like MYC-interacting domain, amino acids 614 to 655 of MED25 (YVGKADFLVFRAMSQHGFLGQLQDKKLCAVIQLPSQTLLLSV; also: biotin-conjugated)”, the “AlphaScreen interaction of biotin-conjugated peptide with MYC3” value in assay [1] is reported as “confirmed”. The “interaction between MYC3 and CMIDM in FA assay” value in assay [2] (Fig. 5B) is listed as “confirmed”. Turning to FQKFLDRRRSFRDIQGAISKIDPEIIKSLLAST (peptide, UniProt Q93ZM9 26-58, looked up, also: 5-carboxyfluorescein-conjugated) [fluorescein-conjugated JAZ10^CMID (26-58aa)], the Kd in assay [3] stood at 0.47 µM. Same read-out and setting: the value for YVGKADFLVFRAMSQHGFLGQLQDKKLCAVIQLPSQTLLLSV (peptide, UniProt Q7XYY2 614-655, looked up, also: 5-carboxyfluorescein-conjugated) [fluorescein-conjugated MED25^CMIDM (614-655aa)] was 1.9 µM.

Usually Kd stands for the equilibrium constant for the complex coming apart. Read a high Kd as weaker binding.
